Reference: patent US20240254229A1 (Molecular Partners, published 2024)
One block for each binder: values may come before it.

What was measured:
[1] = target: T1, Molm-13 N1 tumor cells (carrying CD123, CD33 and CD70) (human, UniProt P20138 18-364; P26951 19-378; P32970 1-193); test: flow cytometry on Molm-13 N1 cells, 20 uM HSA
T1 construct: whole, on cells; Not a complex: three separate antigens on one cell; also called Molm-13 N1 cells
Protocol: The determination of binding of several multispecific proteins to tumor cells was performed by Fluorescence Activated Cell Sorting (FACS) flow cytometry. Therefore, tumor cells (Molm-13 N1), were seeded at 100′000 cells per well in a 96 well plate. DARPin® protein #56, DARPin® protein #57, DARPin® protein #58, DARPin® protein #59, DARPin® protein #60, DARPin® protein #61 and DARPin® protein #62 were titrated down starting at 100 nM in 1:5 dilution ratio. Tumor cells were resuspended with diluted DARPin® proteins and incubated 60 minutes at 4° C. The assay was performed in PBS including 2% fetal bovine serum and human serum albumin 20 uM (HSA). After washing twice with Phosphate Buffer saline (PBS), DARPin® protein specific tumor cell binding was detected by adding unlabelled primary […] (anti-rabbit 1-1-1 antibody, CePower) at 2 ug/ml. An incubation step of at least 30 minutes at 4° C. followed. Afterwards, cells were washed with PBS and a secondary anti-rabbit antibody labelled with Alexa Fluor 647 antibody (ThermoFisher) at 2 ug/ml was added. The same incubation conditions applied. Finally, the cells were washed twice and resuspended in Cytofix fixation buffer (BD Biosciences) for 15 min at room temperature (RT). Median fluorescence intensities (MFI) of Alexa Fluor 647 DARPin® labelled cells were measured by Attune NxT (Thermo Fisher) using FlowJo software for analyses and GraphPad Prism 8 for data plotting.

human serum albumin = target: T2, human serum albumin (human, UniProt P02768 25-609); test: SPR (ProteOn XPR36), target on GLC chip, DARPin as analyte
T2 construct: also called HSA; SA
From the text: (§1) For that, DARPin® protein #27, DARPin® protein #29, DARPin® protein #47 and DARPin® protein #48 and DARPin® protein #49, DARPin® protein #50, DARPin® protein #51, DARPin® protein #52, DARPin® protein #31, DARPin® protein #53, DARPin® protein #54, DARPin® protein #55, DARPin® protein #34, DARPin® protein #33, DARPin® protein #39 and DARPin® protein #36 were subcloned and expressed as described above into derivatives of the pQE30 (Qiagen) expression vector, containing an N-terminal His-tag, CD33, CD123 and/or CD70 binding ankyrin repeat domains, followed by a CD3 specific ankyrin repeat domain and for some constructs by a human serum albumin specific ankyrin repeat domain.
(§2) Briefly, biotinylated human CD70, CD123 and CD33 was diluted in PBST (PBS, pH 7.4 containing 0.005% Tween 20®) and coated on a GLC chip (BioRad) to a level of around 200, 460 and 450 resonance units (RU) respectively. HSA in NaOAc pH 5.0 was directly immobilized on the GLC chip to a level of 800 RU. Bio.CD70, bio. CD33 and bio. CD123 required to have Neutravidin coated first to a level of 6000 RU before the biotinylated targets could be applied. The interaction of the selected ankyrin repeat proteins and human CD70, CD123 and CD33 was then measured by injecting 300 μl running buffer (PBS, pH 7.4 containing 0.005% Tween 20®) containing serial dilutions of ankyrin repeat proteins covering a concentration range between 100 nM and 2.6 nM (100, 40, 16, 6.4 and 2.6 nM respectively) for multi-trace SPR measurements, with an association of 120 s and dissociation of 1200 s using a constant flow of 100 μl/min. The regeneration was performed using 30 μl of 4 mM Glycine pH 2. The signals (i.e. resonance unit (RU) values) of the interspots and a reference injection (i.e. injection of running buffer only) were subtracted from the RU traces obtained after injection of ankyrin repeat protein (double-referencing).

[2] = target: T3, extracellular domain of human CD70 (SEQ ID NO: 89), hCD70-Fc-trimer, ACRO Biosystems (human, UniProt P32970 52-193, chemically biotinylated where the biotinylated form was used); test: as above
T3 construct: also called human CD70-Fc-trimer; Bio.CD70
T3 sequence: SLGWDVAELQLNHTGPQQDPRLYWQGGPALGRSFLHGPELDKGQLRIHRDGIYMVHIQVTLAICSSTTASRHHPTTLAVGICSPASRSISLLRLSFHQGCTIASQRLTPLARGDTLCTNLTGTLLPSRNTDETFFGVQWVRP
From the text: as §1, §2

[3] = target: T4, biotinylated extracellular domain of human CD33 (SEQ ID NO: 87), Fc and Avi tagged (human, UniProt P20138 18-259, biotinylated with BirA-GST (Avi tag)); test: as above
T4 construct: also called hCD33; human target hCD33
From the text: as §1, §2

[4] = target: T5, biotinylated extracellular domain of human CD123 (SEQ ID NO: 88), Fc and Avi tagged (human, UniProt P26951 19-303, biotinylated with BirA-GST (Avi tag)); test: SPR (ProteOn XPR36), target on GLC chip
T5 construct: also called hCD123
T5 sequence: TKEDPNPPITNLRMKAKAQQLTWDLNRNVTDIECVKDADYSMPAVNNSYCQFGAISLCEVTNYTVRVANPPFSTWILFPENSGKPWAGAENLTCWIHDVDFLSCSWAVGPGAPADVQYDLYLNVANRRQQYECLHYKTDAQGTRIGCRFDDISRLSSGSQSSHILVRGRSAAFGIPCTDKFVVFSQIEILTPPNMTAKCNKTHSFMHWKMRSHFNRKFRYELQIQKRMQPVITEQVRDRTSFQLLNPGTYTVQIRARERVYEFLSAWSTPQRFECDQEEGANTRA
From the text: as §1, §2

T4 sequence (P20138 18-259 R69G): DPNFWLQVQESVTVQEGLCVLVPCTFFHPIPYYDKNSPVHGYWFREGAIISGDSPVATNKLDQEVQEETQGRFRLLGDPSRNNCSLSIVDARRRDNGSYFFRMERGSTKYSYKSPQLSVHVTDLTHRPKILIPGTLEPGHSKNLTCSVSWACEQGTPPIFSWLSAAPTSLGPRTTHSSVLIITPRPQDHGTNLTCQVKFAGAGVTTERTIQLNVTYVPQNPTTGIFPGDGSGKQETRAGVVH
T2 sequence (P02768 25-609 limits assumed): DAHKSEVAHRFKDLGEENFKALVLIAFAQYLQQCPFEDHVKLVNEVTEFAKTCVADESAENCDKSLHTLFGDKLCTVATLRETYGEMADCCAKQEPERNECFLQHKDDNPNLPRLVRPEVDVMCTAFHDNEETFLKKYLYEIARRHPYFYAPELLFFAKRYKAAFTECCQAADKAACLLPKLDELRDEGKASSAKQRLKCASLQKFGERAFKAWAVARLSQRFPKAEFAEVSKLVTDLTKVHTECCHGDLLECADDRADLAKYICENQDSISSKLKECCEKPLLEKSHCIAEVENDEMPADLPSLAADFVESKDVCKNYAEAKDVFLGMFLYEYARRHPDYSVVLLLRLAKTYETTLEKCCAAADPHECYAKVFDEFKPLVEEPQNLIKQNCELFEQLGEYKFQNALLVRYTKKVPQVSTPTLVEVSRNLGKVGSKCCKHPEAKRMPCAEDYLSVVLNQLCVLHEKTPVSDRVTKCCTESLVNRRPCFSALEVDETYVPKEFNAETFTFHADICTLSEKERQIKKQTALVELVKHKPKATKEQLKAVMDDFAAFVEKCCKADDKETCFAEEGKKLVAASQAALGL
T1 sequence (P20138 18-364, one chain of several): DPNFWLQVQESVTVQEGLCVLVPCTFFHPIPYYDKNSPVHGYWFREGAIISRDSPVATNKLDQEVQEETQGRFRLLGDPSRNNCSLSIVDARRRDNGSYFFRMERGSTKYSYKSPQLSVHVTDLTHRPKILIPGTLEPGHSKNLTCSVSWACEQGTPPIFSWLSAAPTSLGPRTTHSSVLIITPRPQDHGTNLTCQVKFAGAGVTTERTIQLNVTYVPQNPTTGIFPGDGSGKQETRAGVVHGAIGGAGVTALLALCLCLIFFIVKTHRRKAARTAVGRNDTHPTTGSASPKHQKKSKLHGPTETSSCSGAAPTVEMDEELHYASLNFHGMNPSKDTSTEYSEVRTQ

B1: DARPin® protein #61 (designed binder)
chain: DLGKKLLEAARAGQDDEVRELLKAGADVNAKDYFSHTPLHLAARNGHLKIVEVLLKAGADVNAKDFAGKTPLHLAAADGHLEIVEVLLKAGADVNAQDIFGKTPADIAADAGHEDIAEVLQKAAGSPTPTPTTPTPTPTTPTPTPTGSDLGKKLLEAARAGQDDEVRELLKAGADVNAKDYFSHTPLHLAARNGHLKIVEVLLKAGADVNAKDFAGKTPLHLAAADGHLEIVEVLLKAGADVNAQDIFGKTPADIAADAGHEDIAEVLQKAAGSPTPTPTTPTPTPTTPTPTPTGSDLGKKLLQAARAGQLDEVRELLKAGADVNAKDQQGLTPLHIAANLGHLEIVEVLLKAGADVNAKDLFGLTPLHLAAFEGHLEIVEVLLKAGADVNAKDQHGATPLHLAAWVGHLEIVEVLLKAGADVNAQDKSGKTPADLAARAGHQDIAEVLQKAAGSPTPTPTTPTPTPTTPTPTPTGSDLGKKLLQAALEGQLDEVRELLKAGADVNAKDIEGYTPLHLAAALGHLEIVEVLLKAGADVNAKDQIGRTPLHLAAYKGHLEIVEVLLKAGADVNAQDIIGQTPADLAAQRGHQDIAEVLQKAAGSPTPTPTTPTPTPTTPTPTPTGSDLGKKLLLAAERGQLDEVRILLKAGADVNAKDRAEGYTPLHIAAYQGHLEIVEVLLKAGADVNAKDRYGKTPLHLAAISGHLEIVEVLLKAGADVNAQDNKGSTPADLAADYGHQDIAEVLQKAAGSPTGSDLGQKLLEAAWAGQDDEVRELLKAGADVNAKNSRGWTPLHTAAQTGHLEIFEVLLKAGADVNAKNDKRVTPLHLAAALGHLEIVEVLLKAGADVNARDSWGTTPADLAAKYGHQDIAEVLQKAA
notes: HSA-HSA-CD70-CD123-CD33-CD3
EC50 [1]: 0.13 nM

B2: DARPin® protein #51 (designed binder)
chain: MRGSHHHHHHDLGKKLLEAARAGQDDEVRELLKAGADVNAKDYFSHTPLHLAARNGHLKIVEVLLKAGADVNAKDFAGKTPLHLAAADGHLEIVEVLLKAGADVNAQDIFGKTPADIAADAGHEDIAEVLQKAAGSPTPTPTTPTPTPTTPTPTPTGSDLGKKLLEAARAGQDDEVRELLKAGADVNAKDYFSHTPLHLAARNGHLKIVEVLLKAGADVNAKDFAGKTPLHLAAADGHLEIVEVLLKAGADVNAQDIFGKTPADIAADAGHEDIAEVLQKAAGSPTPTPTTPTPTPTTPTPTPTGSDLGYKLLQAAYDGQLDEVRILLKAGADVNAKDSRGQTPLHYAASIGHLEIVEVLLKAGADVNAKDDHGWTPLHLAAWSGHLEIVEVLLKAGADVNAQDQEGTTPADLAAVQGHQDIAEVLQKAAGSPTPTPTTPTPTPTTPTPTPTGSDLGVKLLLAASRGQLDEVRILLKAGADVNAKDIDEGYTPLHIAAYYGHLEIVEVLLKAGADVNAKDRYGKTPLHLAAISGHLEIVEVLLKAGADVNAQDDKGDTPADLAADYGHQDIAEVLQKAAGSPTPTPTTPTPTPTTPTPTPTGSDLGQKLLEAAWAGQDDEVRELLKAGADVNAKNSRGWTPLHTAAQTGHLEIFEVLLKAGADVNAKDDKGVTPLHLAAALGHLEIVEVLLKAGADVNAQDSWGTTPADLAAKYGHEDIAEVLQKAA
notes: HSA-HSA-CD70-CD33-CD3
Kd (human serum albumin): 1.3 nM
Kd [2]: 0.56 nM
Kd [3]: 5.5 nM
binding result [4]: no binding (tested: 100 nM (highest concentration))

Continued, in another order:

EC50 [1]: 0.36 nM
B3: DARPin® protein #62 (designed binder)
chain: DLGKKLLEAARAGQDDEVRELLKAGADVNAKDYFSHTPLHLAARNGHLKIVEVLLKAGADVNAKDFAGKTPLHLAAADGHLEIVEVLLKAGADVNAQDIFGKTPADIAADAGHEDIAEVLQKAAGSPTPTPTTPTPTPTTPTPTPTGSDLGKKLLEAARAGQDDEVRELLKAGADVNAKDYFSHTPLHLAARNGHLKIVEVLLKAGADVNAKDFAGKTPLHLAAADGHLEIVEVLLKAGADVNAQDIFGKTPADIAADAGHEDIAEVLQKAAGSPTPTPTTPTPTPTTPTPTPTGSDLGIKLLTAAYDGQLDEVRILLKAGADVNAKDLRGQTPLHYAAGLGHLEIVEVLLKAGADVNAKDLHGWTPLHLAAWSGHLEIVEVLLKAGADVNAQDVEGVTPADLAAVQGHQDIAEVLQKAAGSPTPTPTTPTPTPTTPTPTPTGSDLGVKLLLAAERGQLDEVRILLKAGADVNAKDIAEGYTPLHIAAYQGHLEIVEVLLKAGADVNAKDRYGKTPLHLAAIGGHLEIVEVLLKAGADVNAQDNKGSTPADLAADYGHQDIAEVLQKAAGSPTPTPTTPTPTPTTPTPTPTGSDLGKKLLEAALEGQLDEVRELLKAGADVNAKDQEGYTPLHLAAALGHLEIVEVLLKAGADVNAKDQIGRTPLHLAAYKGHLEIVEVLLKAGADVNAQDIIGQTPADLAAQRGHQDIAEVLQKAAGSPTPTPTTPTPTPTTPTPTPTGSDLGQKLLEAAWAGQDDEVRELLKAGADVNAKNSRGWTPLHTAAQTGHLEIFEVLLKAGADVNAKNDKRVTPLHLAAALGHLEIVEVLLKAGADVNARDSWGTTPADLAAKYGHQDIAEVLQKAA
notes: HSA-HSA-CD70-CD33-CD123-CD3

Kd (human serum albumin): 24 nM
Kd [2]: 0.81 nM
Kd [3]: 7.5 nM
B4: DARPin® protein #50 (designed binder)
chain: MRGSHHHHHHDLGKKLLEAARAGQDDEVRELLKAGADVNAKDYFSHTPLHLAARNGHLKIVEVLLKAGADVNAKDFAGKTPLHLAAADGHLEIVEVLLKAGADVNAQDIFGKTPADIAADAGHEDIAEVLQKAAGSPTPTPTTPTPTPTTPTPTPTGSDLGYKLLQAAYDGQLDEVRILLKAGADVNAKDSRGQTPLHYAASIGHLEIVEVLLKAGADVNAKDDHGWTPLHLAAWSGHLEIVEVLLKAGADVNAQDQEGTTPADLAAVQGHQDIAEVLQKAAGSPTPTPTTPTPTPTTPTPTPTGSDLGVKLLLAASRGQLDEVRILLKAGADVNAKDIDEGYTPLHIAAYYGHLEIVEVLLKAGADVNAKDRYGKTPLHLAAISGHLEIVEVLLKAGADVNAQDDKGDTPADLAADYGHQDIAEVLQKAAGSPTPTPTTPTPTPTTPTPTPTGSDLGQKLLEAAWAGQDDEVRELLKAGADVNAKNSRGWTPLHTAAQTGHLEIFEVLLKAGADVNAKDDKGVTPLHLAAALGHLEIVEVLLKAGADVNAQDSWGTTPADLAAKYGHEDIAEVLQKAA
notes: HSA-CD70-CD33-CD3
binding result [4]: no binding (tested: 100 nM (highest concentration))
